According to FireProtDB (doi:10.1016/s0022-2836(02)00630-7):

Details: Bacillus subtilis (strain 168); pH 7; Thermal; CD; Potassium phosphate 10 mM; reversible: yes; whole UniProt chain shown

B1: Phosphocarrier protein HPr wild type, P08877 (protein)
chain: MAQKTFKVTADSGIHARPATVLVQTASKYDADVNLEYNGKTVNLKSIMGVMSLGIAKGAEITISASGADENDALNALEETMKSEGLGE
Tm: 72.6 °C
unfolding enthalpy (van 't Hoff): 74.9 kcal/mol
